Patent US20160297851A1, “BROAD SPECTRUM […]” (priority 2012, published 2016)

What was measured:
[1] = target: full-length P29S mutant of S. aureus SPase (His6x-tagged SpsB(P29S)) (Staphylococcus aureus); assay: steady-state increase of arylomycin fluorescence (ex 320 nm, em 410 nm) on binding full-length S. aureus SPase P29S
[2] = target: full-length P29S mutant of S. aureus SPase (His6x-tagged SpsB(P29S)) (Staphylococcus aureus); assay: steady-state binding by increase of arylomycin fluorescence; full-length His-tagged S. aureus SPase, buffer with 10% glycerol
[3] = target: full-length wild type S. aureus SPase (His6x-tagged SpsB) (Staphylococcus aureus); assay: as above
[4] = target: P84S variant of the truncated E. coli SPase (Δ2-75) (Escherichia coli) (UniProt P00803); assay: steady-state increase of arylomycin fluorescence (ex 320 nm, em 410 nm) on binding the soluble N-terminally truncated (delta 2-75) E. coli SPase P84S
[5] = target: full-length wild type S. aureus SPase (His6x-tagged SpsB) (Staphylococcus aureus); assay: steady-state increase of arylomycin fluorescence (ex 320 nm, em 410 nm) on binding full-length wild type S. aureus SPase
[6] = target: P84S variant of the truncated E. coli SPase (Δ2-75) (Escherichia coli) (UniProt P00803); assay: steady-state binding by increase of arylomycin fluorescence (ex 320 nm, em 410 nm); truncated SPase in n-octyl-β-glucopyranoside micelles

Work on arylomycin C16 (peptide) yielded an EC50 (read off the curve) [1] of 200 nM, a Kd [2] of 130 nM and a Kd [3] of 1280 nM. It also gave an EC50 (read off the curve) [4] of 90 nM, an EC50 (read off the curve) [5] of 2000 nM and a Kd [6] of 39 nM.
